Assays:
[1] = biological target: T1, recombinant human IL-7Rα-His6-Fc (human, UniProt P16871 21-239); assay: IL-7/IL-7Rα-His6-Fc ELISA; inhibition of IL-7 binding to IL-7R
T1 construct: also called hIL-7R; not shown: His6 tag; Fc (captured by anti-human IgG Fc)
T1 chain: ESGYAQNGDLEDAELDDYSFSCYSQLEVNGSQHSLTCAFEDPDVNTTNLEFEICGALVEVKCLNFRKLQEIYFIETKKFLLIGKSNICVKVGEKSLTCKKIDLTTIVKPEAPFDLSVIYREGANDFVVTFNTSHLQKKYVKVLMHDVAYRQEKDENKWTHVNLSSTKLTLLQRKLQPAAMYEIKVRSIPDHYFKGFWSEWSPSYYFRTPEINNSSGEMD

[2] = biological target: T1, recombinant human IL-7Rα-His6-Fc; assay: Biacore; IL-7Rα-His6-Fc captured by anti-human IgG Fc, ICVD flowed over
[3] = biological target: T1, recombinant human IL-7Rα-His6-Fc; assay: IL-7/IL-7R neutralisation ELISA; inhibition of IL-7 binding to IL-7R
[4] = biological target: T2, cynomolgus monkey IL-7Rα (cynomolgus monkey, UniProt Q38IC7 21-239, limits assumed); assay: competition ELISA: ID-A40U premixed with serially diluted soluble IL-7R, then added to plate-coated human IL-7Rα-His6-Fc; bound ICVD detected
T2 construct: also called cynomolgus IL-7Rα
T2 sequence: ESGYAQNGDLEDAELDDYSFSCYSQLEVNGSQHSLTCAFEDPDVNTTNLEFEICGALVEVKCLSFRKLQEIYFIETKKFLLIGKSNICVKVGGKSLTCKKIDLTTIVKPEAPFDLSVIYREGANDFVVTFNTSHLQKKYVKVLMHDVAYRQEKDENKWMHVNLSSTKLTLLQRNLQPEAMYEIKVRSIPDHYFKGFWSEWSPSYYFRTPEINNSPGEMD
Description: (§1) 96-well plates were coated with 0.5 μg/mL recombinant human IL-7Rα His₆-Fc +5 μg/mL BSA and then blocked. 0.5 nM of ICVD was mixed 1:1 with the test compounds of choice serially diluted in 1% BSA, then incubated for 30 minutes to allow binding before adding to the IL-7Rα coated plates. Following 2 hours incubation, bound ICVD was detected with 50 uL/well 1/20000 anti-FLAG-HRP Goat antibody (GeneTex, GTX21238), and the level of neutralisation of ICVD-IL-7Rα binding by the test compounds was determined.

[5] = biological target: T3, murine IL-7Rα (murine, UniProt P16872 21-239); assay: as above
T3 construct: also called mouse IL-7R
T3 sequence (looked up): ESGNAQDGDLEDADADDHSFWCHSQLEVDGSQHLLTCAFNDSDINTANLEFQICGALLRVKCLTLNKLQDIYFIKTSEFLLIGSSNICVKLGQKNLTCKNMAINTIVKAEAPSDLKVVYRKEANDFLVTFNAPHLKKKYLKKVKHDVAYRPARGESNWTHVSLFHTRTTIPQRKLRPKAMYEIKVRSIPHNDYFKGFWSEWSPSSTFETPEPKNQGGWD
Description: as §1

[6] = biological target: T4, IL-9R (human, UniProt Q01113 41-270, limits assumed); assay: competition ELISA: ID-A40U premixed with serially diluted soluble receptor, then added to plate-coated human IL-7Rα; bound ICVD detected [left panel]
T4 sequence (looked up): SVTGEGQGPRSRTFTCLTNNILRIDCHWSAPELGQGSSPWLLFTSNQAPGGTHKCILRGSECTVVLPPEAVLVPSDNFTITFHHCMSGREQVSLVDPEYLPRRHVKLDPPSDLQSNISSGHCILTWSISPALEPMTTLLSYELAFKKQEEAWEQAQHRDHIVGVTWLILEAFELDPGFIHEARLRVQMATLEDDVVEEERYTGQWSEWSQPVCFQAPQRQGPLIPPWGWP
Description: as §1

[7] = biological target: T5, TNFR-2 (human, UniProt P20333 23-257); assay: as above
T5 sequence (looked up): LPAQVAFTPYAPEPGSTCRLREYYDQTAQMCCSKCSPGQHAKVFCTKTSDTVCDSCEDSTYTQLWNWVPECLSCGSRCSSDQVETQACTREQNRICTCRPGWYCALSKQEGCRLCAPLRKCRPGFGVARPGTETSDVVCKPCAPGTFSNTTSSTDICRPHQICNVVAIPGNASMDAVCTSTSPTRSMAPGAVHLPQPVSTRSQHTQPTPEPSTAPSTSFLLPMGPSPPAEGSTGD
Description: as §1

[8] = biological target: T6, IL-6R (human, UniProt P08887 20-358, limits assumed); assay: as above
T6 sequence (looked up): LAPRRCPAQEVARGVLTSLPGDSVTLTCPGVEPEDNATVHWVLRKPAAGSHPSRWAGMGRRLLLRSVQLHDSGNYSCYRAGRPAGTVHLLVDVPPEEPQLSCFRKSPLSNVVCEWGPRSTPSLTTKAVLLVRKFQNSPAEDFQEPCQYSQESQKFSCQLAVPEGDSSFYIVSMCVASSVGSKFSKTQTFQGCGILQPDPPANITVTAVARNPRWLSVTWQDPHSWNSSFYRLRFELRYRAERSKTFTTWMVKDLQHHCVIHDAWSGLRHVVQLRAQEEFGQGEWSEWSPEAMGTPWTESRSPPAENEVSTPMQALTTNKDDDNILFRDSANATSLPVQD
Description: as §1

[9] = biological target: T7, human IL-12Rβ1 (human, UniProt P42701 24-545, limits assumed); assay: competition ELISA: ID-A40U premixed with serially diluted soluble receptor, then added to plate-coated human IL-7Rα; bound ICVD detected [right panel]
T7 construct: also called hIL-12Rβ1; IL-12Rα1 (as printed in the result sentence)
Description: as §1

[10] = biological target: IL-21R (human, UniProt Q9HBE5 20-232, limits assumed); assay: as above
Description: as §1

Chain of IL-21R (Q9HBE5 20-232 limits assumed): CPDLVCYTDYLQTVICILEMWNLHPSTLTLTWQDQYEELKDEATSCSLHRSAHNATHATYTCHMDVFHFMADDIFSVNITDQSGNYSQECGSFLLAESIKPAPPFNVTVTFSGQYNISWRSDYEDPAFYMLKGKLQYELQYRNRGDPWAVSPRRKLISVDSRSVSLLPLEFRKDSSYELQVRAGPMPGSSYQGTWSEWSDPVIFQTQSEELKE

B1: ID-A40U (VHH)
VHH: EVQLVESGGGLVQAGGSLRLSCESSISTFSSDAMGWFRQAPGKEREFLAAIGWSGAVTHYSDSVKGRFTISRDNAKNTVYLQMNSLRAEDTGRYYCAEDYDTDVWQYWGQGTQVTVSS
notes: V7R-2E9 with Q65K, K87R, S88A; produced in E. coli; also called A40U-F/H; not shown: Flag-His6 tag
- EC50 [1]: 0.544 nM
- Kd [2]: 0.078 nM
- EC50 [3]: 0.544 nM
- binding result [4]: binds
- binding result [5]: no binding (tested: 100 ng/mL)
- binding result [6]: no binding (tested: 100 ng/mL)
- binding result [7]: no binding (tested: 100 ng/mL)
- binding result [8]: no binding (tested: 100 ng/mL)
- binding result [9]: no binding (tested: 100 ng/mL)
- binding result [10]: no binding (tested: 100 ng/mL)

Reference: US20220363769A1 (SORRISO PHARMACEUTICALS, published 2022)
